The text below walks through data of US20250277199, “NOVEL CRISPR-CAS NUCLEASES FROM METAGENOMES” (Brain Biotech AG, published 2025).

The series deals with T1, BMC04 (uncultured bacterium (metagenome)).
T1 chain: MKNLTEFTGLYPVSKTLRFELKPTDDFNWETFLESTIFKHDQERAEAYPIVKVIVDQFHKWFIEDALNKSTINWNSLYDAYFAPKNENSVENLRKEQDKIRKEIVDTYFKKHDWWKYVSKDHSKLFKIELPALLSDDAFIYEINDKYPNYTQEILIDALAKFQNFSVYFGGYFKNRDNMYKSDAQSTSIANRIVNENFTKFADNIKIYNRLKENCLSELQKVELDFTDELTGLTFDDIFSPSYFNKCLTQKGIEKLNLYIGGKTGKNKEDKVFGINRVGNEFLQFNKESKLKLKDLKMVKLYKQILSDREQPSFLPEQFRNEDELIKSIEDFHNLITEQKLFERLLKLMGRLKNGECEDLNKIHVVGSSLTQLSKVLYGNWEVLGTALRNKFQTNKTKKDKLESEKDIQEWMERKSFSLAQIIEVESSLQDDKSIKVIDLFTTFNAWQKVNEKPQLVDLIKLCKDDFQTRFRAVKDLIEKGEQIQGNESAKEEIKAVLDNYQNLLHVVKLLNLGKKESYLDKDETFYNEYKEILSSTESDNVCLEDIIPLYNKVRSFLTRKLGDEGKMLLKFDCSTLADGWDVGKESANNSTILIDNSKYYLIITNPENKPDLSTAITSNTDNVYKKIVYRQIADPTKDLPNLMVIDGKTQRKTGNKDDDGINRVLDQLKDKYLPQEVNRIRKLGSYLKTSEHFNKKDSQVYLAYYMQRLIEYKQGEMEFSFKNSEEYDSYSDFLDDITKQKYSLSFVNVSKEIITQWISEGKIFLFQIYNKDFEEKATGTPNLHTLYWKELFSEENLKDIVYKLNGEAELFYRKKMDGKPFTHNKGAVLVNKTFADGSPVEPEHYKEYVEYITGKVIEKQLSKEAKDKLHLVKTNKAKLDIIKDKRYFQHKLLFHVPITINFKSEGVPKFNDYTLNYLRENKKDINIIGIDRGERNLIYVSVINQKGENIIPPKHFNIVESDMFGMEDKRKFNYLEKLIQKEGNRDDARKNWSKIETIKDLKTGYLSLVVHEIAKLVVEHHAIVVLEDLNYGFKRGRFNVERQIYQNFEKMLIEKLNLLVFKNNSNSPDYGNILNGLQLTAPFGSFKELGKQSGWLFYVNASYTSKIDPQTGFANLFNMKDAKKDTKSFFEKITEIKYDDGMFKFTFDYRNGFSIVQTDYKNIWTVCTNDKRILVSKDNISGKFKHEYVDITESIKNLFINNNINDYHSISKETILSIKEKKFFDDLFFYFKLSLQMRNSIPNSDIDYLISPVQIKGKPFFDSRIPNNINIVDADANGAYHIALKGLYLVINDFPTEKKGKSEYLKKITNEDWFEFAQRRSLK
Put plainly: cell_activity; PAM not stated; E. coli depletion, 30 C. In outline: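 E. coli carrying arabinose-induced (0.2%) BMC nuclease, grown at 30° C., made electrocompetent and electroporated with 50-100 ng plasmid carrying gRNA against malQ. Transformants plated on selective M9-glucose agar with kanamycin/ampicillin (± nourseothricin), and growth scored after 48 h at 30° C.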

B1: malQ gRNA (BMC stem-loop + 24 nt spacer) ; malQ protospacer (ssRNA ; dsDNA)
RNA: GAUUUCUACUAUUGUAGAUGUGGCGGUACGUUGAUGCAUCGCG
DNA 1: GTGGCGGTACGTTGATGCATCGCG
DNA 2: CGCGATGCATCAACGTACCGCCAC
Take B1: the activity is over 99.9 % colony reduction.
